Legend:
Assay in all cases: Kinase Profiling Assay
Assay type in all cases: biochemical
Conditions in all cases: 100 μM
BrSK1 (h) = molecular target: T1, BrSK1 (h) (Homo sapiens, UniProt Q8TDC3)
T1 sequence (Q8TDC3 1-778): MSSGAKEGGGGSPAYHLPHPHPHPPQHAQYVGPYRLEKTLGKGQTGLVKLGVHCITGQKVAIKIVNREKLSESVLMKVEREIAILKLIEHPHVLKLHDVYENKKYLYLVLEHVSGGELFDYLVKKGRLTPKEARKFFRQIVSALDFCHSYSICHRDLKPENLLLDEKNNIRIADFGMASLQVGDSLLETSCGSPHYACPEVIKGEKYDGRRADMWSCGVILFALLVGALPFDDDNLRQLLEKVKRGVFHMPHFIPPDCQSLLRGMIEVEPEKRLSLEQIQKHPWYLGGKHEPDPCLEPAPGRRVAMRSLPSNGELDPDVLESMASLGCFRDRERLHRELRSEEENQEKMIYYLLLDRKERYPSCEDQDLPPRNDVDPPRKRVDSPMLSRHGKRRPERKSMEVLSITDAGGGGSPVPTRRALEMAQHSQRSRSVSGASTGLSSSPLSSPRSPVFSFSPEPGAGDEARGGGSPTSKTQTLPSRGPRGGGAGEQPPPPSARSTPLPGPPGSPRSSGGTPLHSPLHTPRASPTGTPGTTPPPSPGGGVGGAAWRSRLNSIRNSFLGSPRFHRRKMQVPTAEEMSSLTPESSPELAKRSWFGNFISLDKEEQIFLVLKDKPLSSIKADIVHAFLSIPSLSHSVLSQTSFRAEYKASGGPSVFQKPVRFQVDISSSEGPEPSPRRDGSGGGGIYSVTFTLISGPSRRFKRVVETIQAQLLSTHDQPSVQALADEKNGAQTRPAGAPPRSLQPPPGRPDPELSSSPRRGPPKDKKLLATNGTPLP
Outline: (§1)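 Each kinase activity was measured in duplicate. Phosphorylation of a positively charged substrate with radiolabeled phosphate from ATP was captured on a negatively charged filter, counted by scintillation and expressed relative to a 100% activity control. MK2 inhibitory peptides were screened for specificity across 266 human kinases.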

DRAK1 (h) = molecular target: T2, DRAK1 (h) (Homo sapiens, UniProt Q9UEE5)
T2 construct: purchased Millipore
T2 sequence (Q9UEE5 1-414): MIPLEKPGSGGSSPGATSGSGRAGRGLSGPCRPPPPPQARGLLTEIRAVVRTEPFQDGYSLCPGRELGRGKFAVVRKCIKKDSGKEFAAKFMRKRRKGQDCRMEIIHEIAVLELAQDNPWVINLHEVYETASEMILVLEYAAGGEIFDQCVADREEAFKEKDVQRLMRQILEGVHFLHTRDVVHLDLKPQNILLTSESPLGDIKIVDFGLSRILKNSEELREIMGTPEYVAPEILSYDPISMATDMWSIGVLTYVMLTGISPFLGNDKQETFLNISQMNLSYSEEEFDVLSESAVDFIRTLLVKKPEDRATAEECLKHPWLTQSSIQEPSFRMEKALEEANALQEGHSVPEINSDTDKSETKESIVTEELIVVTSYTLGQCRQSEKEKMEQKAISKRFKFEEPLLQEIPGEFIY
Outline: as §1

PKCτ (h) = molecular target: T3, PKCτ (h) (Homo sapiens, UniProt P41743)
T3 sequence (P41743 1-596): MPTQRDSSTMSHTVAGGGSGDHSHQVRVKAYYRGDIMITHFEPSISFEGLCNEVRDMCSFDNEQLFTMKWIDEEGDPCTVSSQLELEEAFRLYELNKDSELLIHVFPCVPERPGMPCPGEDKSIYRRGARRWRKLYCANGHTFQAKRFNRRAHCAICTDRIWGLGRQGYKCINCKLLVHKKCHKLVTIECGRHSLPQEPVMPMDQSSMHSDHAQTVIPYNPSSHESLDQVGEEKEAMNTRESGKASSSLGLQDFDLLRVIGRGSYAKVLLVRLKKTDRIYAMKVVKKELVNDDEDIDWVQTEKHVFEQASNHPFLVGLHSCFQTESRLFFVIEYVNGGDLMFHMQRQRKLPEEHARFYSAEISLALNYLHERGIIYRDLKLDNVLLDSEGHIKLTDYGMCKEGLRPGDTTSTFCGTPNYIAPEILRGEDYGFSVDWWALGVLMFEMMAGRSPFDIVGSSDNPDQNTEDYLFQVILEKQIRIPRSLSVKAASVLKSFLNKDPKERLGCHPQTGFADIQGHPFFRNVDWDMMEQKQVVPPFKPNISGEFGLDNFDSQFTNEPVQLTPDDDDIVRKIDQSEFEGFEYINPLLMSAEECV
Outline: as §1

EGFR(L861Q) (h) = molecular target: T4, EGFR(L861Q) (h) (Homo sapiens, UniProt P00533, L861Q)
T4 construct: purchased Millipore
Outline: as §1

MSK1 (h) = molecular target: T5, MSK1 (h) (Homo sapiens, UniProt O75582)
T5 construct: purchased Millipore
Outline: as §1

CDK6/cyclinD3 (h) = molecular target: T6, CDK6/cyclinD3 (h) (Homo sapiens, UniProt Q00534)
T6 construct: purchased Millipore
Outline: as §1

PTK5 (h) = PTK5 (h) (Homo sapiens, UniProt P42685)
Outline: as §1

cKit(D816H) (h) = molecular target: T7, cKit(D816H) (h) (Homo sapiens, UniProt P10721, D816H)
T7 construct: purchased Millipore
Outline: as §1

CHK1 (h) = molecular target: T8, CHK1 (h) (Homo sapiens, UniProt O14757)
T8 construct: purchased Millipore
T8 sequence (O14757 1-476): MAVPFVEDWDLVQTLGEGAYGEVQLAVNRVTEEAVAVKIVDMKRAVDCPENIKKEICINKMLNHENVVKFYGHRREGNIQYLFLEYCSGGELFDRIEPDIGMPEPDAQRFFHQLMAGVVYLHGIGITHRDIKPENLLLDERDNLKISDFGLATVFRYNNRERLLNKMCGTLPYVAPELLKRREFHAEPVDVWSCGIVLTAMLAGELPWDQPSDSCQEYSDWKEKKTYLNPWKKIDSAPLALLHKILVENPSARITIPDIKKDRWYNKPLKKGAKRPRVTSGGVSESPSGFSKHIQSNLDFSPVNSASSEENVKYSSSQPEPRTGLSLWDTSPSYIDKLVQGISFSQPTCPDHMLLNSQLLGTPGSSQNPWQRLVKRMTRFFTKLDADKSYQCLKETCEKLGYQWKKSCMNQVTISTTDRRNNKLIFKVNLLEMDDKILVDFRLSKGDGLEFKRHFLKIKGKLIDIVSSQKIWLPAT
Outline: as §1

CDK3/cyclinE (h) = molecular target: T9, CDK3/cyclinE (h) (Homo sapiens, UniProt Q00526)
T9 construct: purchased Millipore
Outline: as §1

T5 sequence (O75582 whole entry): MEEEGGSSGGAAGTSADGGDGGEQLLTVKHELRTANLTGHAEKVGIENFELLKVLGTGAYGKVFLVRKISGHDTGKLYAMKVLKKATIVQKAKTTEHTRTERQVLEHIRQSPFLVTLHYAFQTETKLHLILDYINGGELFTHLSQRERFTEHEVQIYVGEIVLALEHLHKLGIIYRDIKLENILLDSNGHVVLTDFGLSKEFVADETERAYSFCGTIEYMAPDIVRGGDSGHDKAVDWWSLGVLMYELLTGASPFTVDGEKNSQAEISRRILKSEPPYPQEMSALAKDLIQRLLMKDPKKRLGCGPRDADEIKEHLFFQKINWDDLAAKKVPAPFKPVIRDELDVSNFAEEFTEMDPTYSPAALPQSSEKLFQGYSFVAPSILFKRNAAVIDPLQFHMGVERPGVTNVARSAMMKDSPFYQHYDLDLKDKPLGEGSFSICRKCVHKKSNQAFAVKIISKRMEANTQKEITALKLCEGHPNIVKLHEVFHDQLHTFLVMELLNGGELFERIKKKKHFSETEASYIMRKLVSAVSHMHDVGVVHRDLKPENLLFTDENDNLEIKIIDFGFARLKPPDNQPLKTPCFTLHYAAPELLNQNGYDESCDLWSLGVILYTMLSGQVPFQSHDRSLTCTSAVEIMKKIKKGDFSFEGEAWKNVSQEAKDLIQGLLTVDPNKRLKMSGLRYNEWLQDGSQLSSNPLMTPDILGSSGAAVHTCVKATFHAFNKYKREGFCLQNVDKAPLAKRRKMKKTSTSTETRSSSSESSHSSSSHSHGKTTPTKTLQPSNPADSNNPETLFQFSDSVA
T9 sequence (Q00526 whole entry): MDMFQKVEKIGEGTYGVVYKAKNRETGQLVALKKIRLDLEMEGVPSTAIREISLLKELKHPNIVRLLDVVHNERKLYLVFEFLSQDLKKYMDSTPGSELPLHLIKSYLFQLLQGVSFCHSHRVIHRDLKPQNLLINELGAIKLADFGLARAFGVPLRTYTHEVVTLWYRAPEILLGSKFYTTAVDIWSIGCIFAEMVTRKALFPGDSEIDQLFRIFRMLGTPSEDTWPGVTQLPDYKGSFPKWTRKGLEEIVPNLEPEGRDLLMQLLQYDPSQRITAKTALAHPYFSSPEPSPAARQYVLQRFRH
T9 sequence (P24864 whole entry partner): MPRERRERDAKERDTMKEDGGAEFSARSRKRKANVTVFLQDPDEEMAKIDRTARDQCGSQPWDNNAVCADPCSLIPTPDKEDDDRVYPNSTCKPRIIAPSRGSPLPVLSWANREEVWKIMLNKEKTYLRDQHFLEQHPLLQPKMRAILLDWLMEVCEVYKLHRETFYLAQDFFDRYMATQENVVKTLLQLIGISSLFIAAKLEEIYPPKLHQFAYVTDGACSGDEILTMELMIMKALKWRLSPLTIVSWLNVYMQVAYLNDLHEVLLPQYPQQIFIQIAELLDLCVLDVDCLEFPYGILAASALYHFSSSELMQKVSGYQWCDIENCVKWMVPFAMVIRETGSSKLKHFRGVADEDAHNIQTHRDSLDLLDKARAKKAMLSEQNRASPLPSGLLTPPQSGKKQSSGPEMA
Chain of PTK5 (h) (P42685 whole entry): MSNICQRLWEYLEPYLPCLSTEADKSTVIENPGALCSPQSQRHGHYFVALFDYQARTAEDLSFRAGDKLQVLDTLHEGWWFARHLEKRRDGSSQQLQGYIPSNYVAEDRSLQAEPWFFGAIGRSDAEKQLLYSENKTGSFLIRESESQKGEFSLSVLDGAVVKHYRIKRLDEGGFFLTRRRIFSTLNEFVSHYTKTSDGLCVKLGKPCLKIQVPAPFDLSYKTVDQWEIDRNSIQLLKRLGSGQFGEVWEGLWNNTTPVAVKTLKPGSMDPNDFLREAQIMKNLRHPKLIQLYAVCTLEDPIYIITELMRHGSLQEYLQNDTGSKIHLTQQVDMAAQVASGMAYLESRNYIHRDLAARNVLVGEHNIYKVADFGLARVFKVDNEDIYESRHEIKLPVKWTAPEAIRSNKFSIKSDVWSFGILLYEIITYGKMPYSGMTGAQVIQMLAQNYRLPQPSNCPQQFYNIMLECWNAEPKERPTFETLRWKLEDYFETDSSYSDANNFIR
T6 sequence (Q00534 whole entry): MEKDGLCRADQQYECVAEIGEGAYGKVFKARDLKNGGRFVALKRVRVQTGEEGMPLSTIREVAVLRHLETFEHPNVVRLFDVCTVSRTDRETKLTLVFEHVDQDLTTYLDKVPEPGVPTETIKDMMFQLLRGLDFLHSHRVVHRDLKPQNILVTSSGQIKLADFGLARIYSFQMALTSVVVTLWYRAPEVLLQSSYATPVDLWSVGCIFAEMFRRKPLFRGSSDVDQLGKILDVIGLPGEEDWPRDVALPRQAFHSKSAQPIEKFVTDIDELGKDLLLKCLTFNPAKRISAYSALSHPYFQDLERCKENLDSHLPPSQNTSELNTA
T6 sequence (P30281 whole entry partner): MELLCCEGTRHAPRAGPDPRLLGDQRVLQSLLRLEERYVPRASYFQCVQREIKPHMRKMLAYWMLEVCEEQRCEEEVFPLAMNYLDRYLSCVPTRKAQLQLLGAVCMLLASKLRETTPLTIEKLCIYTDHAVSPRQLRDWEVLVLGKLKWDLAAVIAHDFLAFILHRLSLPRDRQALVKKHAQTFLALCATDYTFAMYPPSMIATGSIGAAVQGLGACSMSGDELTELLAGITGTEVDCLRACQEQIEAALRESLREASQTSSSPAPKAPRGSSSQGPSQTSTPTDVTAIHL

| Sequence | % activity (BrSK1 (h)) [%] | % activity (DRAK1 (h)) [%] | % activity (PKCτ (h)) [%] | % activity (EGFR(L861Q) (h)) [%] | % activity (MSK1 (h)) [%] | % activity (CDK6/cyclinD3 (h)) [%] | % activity (PTK5 (h)) [%] | % activity (cKit(D816H) (h)) [%] | % activity (CHK1 (h)) [%] | % activity (CDK3/cyclinE (h)) [%] |
| --- | --- | --- | --- | --- | --- | --- | --- | --- | --- | --- |
| YARAAARQARAKALNRQLGVA (Mammalian) [MMI-0200] | 93 | 34 | 97 | 74 | 50 | 100 | 108 |  |  |  |
| HRRIKAWLKKIKALARQLGVAA (Mammalian) [MMI-0500] | 72 | 8 | 7 | 15 | 8 | 23 | 96 | 194 | 65 | 8 |
| FAKLAARLYRKALARQLGVAA [MMI-0300] | 67 | 14 | 68 | 25 | 32 | 86 | 132 | 126 | 91 | 94 |
| KAFAKLAARLYRKALARQLGVAA [MMI-0400] | 76 | 14 | 46 | 22 | 28 | 85 | 129 | 143 | 87 | 92 |
